Data as given in PMC6773438.

Target: mononucleosomes reconstituted by salt dialysis with purified recombinant Drosophila core histones (Drosophila), P84051
Assay: native gel or EMSA; gel mobility shift; 147 bp X. borealis 5S rDNA mononucleosomes (60 nM) with indicated amounts of Dsup; HEG buffer (25 mM Hepes K+, pH 7.6, 0.1 mM EDTA, 10% glycerol), 100 mM KCl, BSA; 30°C 30 min; nondenaturing 4.5% polyacrylamide gel at 4°C, ethidium bromide
Conditions: remark: other sources report otherwise

stoichiometry N (molecules of Rv Dsup per nucleosome): 2
B1: Ramazzottius varieornatus damage suppressor protein (Rv Dsup), P0DOW4 1-445 (natural protein)
chain: MASTHQSSTEPSSTGKSEETKKDASQGSGQDSKNVTVTKGTGSSATSAAIVKTGGSQGKDSSTTAGSSSTQGQKFSTTPTDPKTFSSDQKEKSKSPAKEVPSGGDSKSQGDTKSQSDAKSSGQSQGQSKDSGKSSSDSSKSHSVIGAVKDVVAGAKDVAGKAVEDAPSIMHTAVDAVKNAATTVKDVASSAASTVAEKVVDAYHSVVGDKTDDKKEGEHSGDKKDDSKAGSGSGQGGDNKKSEGETSGQAESSSGNEGAAPAKGRGRGRPPAAAKGVAKGAAKGAAASKGAKSGAESSKGGEQSSGDIEMADASSKGGSDQRDSAATVGEGGASGSEGGAKKGRGRGAGKKADAGDTSAEPPRRSSRLTSSGTGAGSAPAAAKGGAKRAASSSSTPSNAKKQATGGAGKAAATKATAAKSAASKAPQNGAGAKKKGGKAGGRKRK
